Test results: the supplement of paper PMC10724198
± gives the standard deviation of the averaged measurements.

test system: Saccharomyces cerevisiae; experiment: protein stability index of tFT-peptide fusion (C-terminal peptide) (PSI (0-1 scale)); higher = more stable (slower turnover); conditions: genetic background: wild type; temperature: 30 C
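Further: PSI is a weighted mean of sequencing reads over stability bins, variants kept only with over 10 reads, mCherry proximal and sfGFP distal, peptide attached via GGGS linker.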

Going from RVVHKIFGRRVT to RVWNRHWMGASS, the protein stability index rises from 0.6873 ± 0.0049 to 0.776 ± 0.084.

First: RVWSMYCSEANG
Second: RVWYNVGEGPVR
The protein stability index of the first is lower: 0.666 ± 0.017 for the first, 0.699 ± 0.0085 for the second.

RWAQVAEGGEGR and RWARGGSRGGGG are within error of each other in protein stability index: 0.732 ± 0.099 for the first, 0.703 ± 0.044 for the second.

RWCEWYDMNTII and RWGVFRSLPSPS are within error of each other in protein stability index: 0.636 ± 0.02 for the first, 0.622 ± 0.17 for the second.

RWGVGGSVSFWW and RWGVRGAIHSDL are within error of each other in protein stability index: 0.7 ± 0.047 for the first, 0.6841 ± 0.0065 for the second.

Going from RWSVIHARLLSP to RWSYCLVFSLGL, the protein stability index falls from 0.846 ± 0.19 to 0.532 ± 0.015.

First: RWTLMMAIIRQR
Second: RWWGDEAHRDGA
The protein stability index of the first is lower: 0.559 ± 0.024 for the first, 0.81 ± 0.049 for the second.

RYANGVLHIGSN and RYCIRDNKSNRN are within error of each other in protein stability index: 0.659 ± 0.042 for the first, 0.705 ± 0.051 for the second.

Compared with RYENRGRMKRER, RYKCSQWHNGLT is higher in protein stability index: 0.676 ± 0.042 for the first, 0.767 ± 0.048 for the second.

RYKSVPLHCISN and RYNPPRGIHNDL are within error of each other in protein stability index: 0.671 ± 0.022 for the first, 0.651 ± 0.043 for the second.

RYPSRGQFGPSP and RYRGPIPHEHTC are within error of each other in protein stability index: 0.691 ± 0.019 for the first, 0.652 ± 0.085 for the second.

RYSLMRAVRDRL and SAASLWSGFRYG are within error of each other in protein stability index: 0.775 ± 0.17 for the first, 0.68 ± 0.0085 for the second.

Going from SACAPSPPSPSP to SACRSVPGYVAG, the protein stability index falls from 0.749 ± 0.015 to 0.672 ± 0.046.

Going from SAFLSFLRLVFL to SAFLSFPFLSPF, the protein stability index rises from 0.632 ± 0.011 to 0.705 ± 0.011.

First: SAGIRPFIQVHI
Second: SAGLLFFSFPPL
The protein stability index of the first is lower: 0.653 ± 0.019 for the first, 0.7873 ± 0.0067 for the second.

SAGYFYSWNSSD and SAIALGCEGVYP are within error of each other in protein stability index: 0.708 ± 0.028 for the first, 0.6853 ± 0.0012 for the second.

SAMIKRIIGMHY and SANSGVRHMHFW are within error of each other in protein stability index: 0.634 ± 0.048 for the first, 0.729 ± 0.058 for the second.

Compared with SAPAFPPRPPPT, SAPEPTISKLLP is lower in protein stability index: 0.675 ± 0.025 for the first, 0.603 ± 0.027 for the second.

SAPPLPLSPPPS and SAPRPPPLPPSP are within error of each other in protein stability index: 0.739 ± 0.076 for the first, 0.68 ± 0.068 for the second.

SARECSVRTPHN and SASPLRPPFLLL are within error of each other in protein stability index: 0.711 ± 0.061 for the first, 0.635 ± 0.09 for the second.

SATDARPPMKSP and SCEIDKMYLPLR are within error of each other in protein stability index: 0.735 ± 0.069 for the first, 0.701 ± 0.031 for the second.

SCFTSLLGRRDG and SCGCCGVLFQGV are within error of each other in protein stability index: 0.784 ± 0.12 for the first, 0.846 ± 0.2 for the second.

SCGKGVGRWRLG and SCHVRPPVPRPS are within error of each other in protein stability index: 0.6721 ± 0.0029 for the first, 0.663 ± 0.018 for the second.

Going from SCLALLSLLIDF to SCNLYVGQVKSG, the protein stability index rises from 0.57 ± 0.021 to 0.649 ± 0.036.

First: SCPQSSLASVYA
Second: SCPRASSSSLTA
The protein stability index of the first is lower: 0.529 ± 0.029 for the first, 0.671 ± 0.07 for the second.

SCRAIIDCMYNT and SCSDPPSPLPLS are within error of each other in protein stability index: 0.611 ± 0.067 for the first, 0.686 ± 0.0088 for the second.

Compared with SCSGVHYLGSSL, SCVWVLPLGFLR is lower in protein stability index: 0.679 ± 0.023 for the first, 0.575 ± 0.058 for the second.

SDCWGAIIGCSG and SDPGRLVLKIRR are within error of each other in protein stability index: 0.677 ± 0.027 for the first, 0.715 ± 0.014 for the second.

SDSIVTGCLKYP and SEARCVGSVWGG are within error of each other in protein stability index: 0.696 ± 0.014 for the first, 0.757 ± 0.098 for the second.

Compared with SEKGPRRSRVWD, SEKILCTGECAA is lower in protein stability index: 0.745 ± 0.046 for the first, 0.619 ± 0.07 for the second.

SEKIRDQQPTPA and SEKRIGAGKDSE are within error of each other in protein stability index: 0.671 ± 0.044 for the first, 0.688 ± 0.011 for the second.

SENNLKHEKVIE and SERERYKKNEKV are within error of each other in protein stability index: 0.735 ± 0.22 for the first, 0.643 ± 0.0017 for the second.

SEVISMSDDLGR and SFASLSFDTASF are within error of each other in protein stability index: 0.633 ± 0.087 for the first, 0.675 ± 0.0086 for the second.

Going from SFCCISSFPCWR to SFDFRKGDPTSD, the protein stability index falls from 0.751 ± 0.016 to 0.667 ± 0.02.

SFGGGLIGAGVT and SFHCFFTTSWYS are within error of each other in protein stability index: 0.698 ± 0.082 for the first, 0.701 ± 0.11 for the second.

Going from SFLSLLLLSSSR to SFMYCDLLLFGS, the protein stability index falls from 0.7 ± 0.012 to 0.59 ± 0.068.

SFPLLFPVSSRL and SFPLSPPSLPSL are within error of each other in protein stability index: 0.8641 ± 0.0077 for the first, 0.781 ± 0.1 for the second.

First: SFPPLCLSFPVF
Second: SFPYPCFPPPPF
The protein stability index of the first is lower: 0.65 ± 0.02 for the first, 0.78 ± 0.056 for the second.

SFSLPPSSSPPT and SFSPNRAVSFST are within error of each other in protein stability index: 0.725 ± 0.1 for the first, 0.727 ± 0.082 for the second.

SFSPSIHLLSTL and SFTFSFWRFSPR are within error of each other in protein stability index: 0.677 ± 0.045 for the first, 0.676 ± 0.019 for the second.

SFTYVFFSLSRR and SFVFRLGEVGSS are within error of each other in protein stability index: 0.663 ± 0.019 for the first, 0.603 ± 0.12 for the second.

First: SFVFVCDGGSRG
Second: SFVVAVALGRLR
The protein stability index of the first is higher: 0.669 ± 0.017 for the first, 0.5734 ± 0.003 for the second.

First: SFVVFGSFFCFC
Second: SGAATSRRGLCS
The protein stability index of the first is lower: 0.572 ± 0.018 for the first, 0.672 ± 0.013 for the second.

SGAGAMPPCSLP and SGCGGKFGCALR are within error of each other in protein stability index: 0.697 ± 0.029 for the first, 0.74 ± 0.045 for the second.

Compared with SGCRLGCASVVQ, SGGGAGKRVCEG is higher in protein stability index: 0.611 ± 0.044 for the first, 0.704 ± 0.015 for the second.

SGGGELGATSGG and SGGGGGGQVAVG are within error of each other in protein stability index: 0.691 ± 0.031 for the first, 0.739 ± 0.1 for the second.

SGGISGCPPPVF and SGGRTSRREGGR are within error of each other in protein stability index: 0.689 ± 0.036 for the first, 0.643 ± 0.075 for the second.

SGGSKAGGVVRI and SGIIVSPAVDMY are within error of each other in protein stability index: 0.63 ± 0.039 for the first, 0.667 ± 0.0067 for the second.

First: SGIKGENKIKEK
Second: SGILRSLAYPPD
The protein stability index of the first is higher: 0.681 ± 0.0097 for the first, 0.6142 ± 0.0035 for the second.

First: SGKFGACVDRGI
Second: SGLRPGAGDCSA
The protein stability index of the first is higher: 0.7236 ± 0.00012 for the first, 0.611 ± 0.07 for the second.

SGPSSIGSSCMS and SGQVFADGSYAD are within error of each other in protein stability index: 0.663 ± 0.023 for the first, 0.699 ± 0.015 for the second.

First: SGRAALARVSPT
Second: SGRCGGESNDAE
The protein stability index of the first is higher: 0.694 ± 0.028 for the first, 0.626 ± 0.012 for the second.

SGRPALSRARRG and SGRYNIKPEERE are within error of each other in protein stability index: 0.668 ± 0.015 for the first, 0.634 ± 0.022 for the second.

SGSLFVRIGGMG and SGVDVPCSCHYL are within error of each other in protein stability index: 0.754 ± 0.094 for the first, 0.732 ± 0.013 for the second.

SGVTISYQEGLR and SGVVIDDSLKEE are within error of each other in protein stability index: 0.677 ± 0.0091 for the first, 0.683 ± 0.0092 for the second.

SGVVLVRCEGRR and SGWVVECPRECW are within error of each other in protein stability index: 0.754 ± 0.15 for the first, 0.719 ± 0.024 for the second.

Going from SHALSFSFSLLP to SHGEDTACNWGL, the protein stability index rises from 0.6367 ± 0.0052 to 0.714 ± 0.018.

SHPHLSSPPSRP and SHPLFLPALSPP are within error of each other in protein stability index: 0.678 ± 0.055 for the first, 0.721 ± 0.061 for the second.

Going from SHQTTKQKKKNL to SHSLPHLSGPPR, the protein stability index rises from 0.624 ± 0.013 to 0.698 ± 0.056.

SHTLIRRGTHFP and SHTVVFRVCTGS are within error of each other in protein stability index: 0.683 ± 0.0094 for the first, 0.631 ± 0.087 for the second.

Going from SHVPLPRAHSPP to SHVVRHVSTVEK, the protein stability index rises from 0.6702 ± 0.0034 to 0.7 ± 0.023.

SICRERRLSFYL and SIECSLCYSLFD are within error of each other in protein stability index: 0.728 ± 0.052 for the first, 0.663 ± 0.032 for the second.

SIERNEGRKKLG and SIFPLSLLLPLP are within error of each other in protein stability index: 0.708 ± 0.064 for the first, 0.758 ± 0.05 for the second.

SIHITGTLSRTA and SIIRWSKRTEES are within error of each other in protein stability index: 0.751 ± 0.065 for the first, 0.695 ± 0.049 for the second.

Going from SIKKKQKIKLTK to SIRPVRLSWVRL, the protein stability index falls from 0.689 ± 0.02 to 0.632 ± 0.0066.

SIRQDSLMVWGG and SISANPGAPHFP are the same in protein stability index: 0.666 ± 0.097 for the first, 0.666 ± 0.022 for the second.

SISGTSKDSASC and SISRPSEHHLTQ are within error of each other in protein stability index: 0.6677 ± 0.0028 for the first, 0.673 ± 0.023 for the second.

SIVLRNRSGDIL and SIVPIIPDSVPP are within error of each other in protein stability index: 0.63 ± 0.061 for the first, 0.676 ± 0.048 for the second.

SKEERRKGSKKI and SKKRKKNNAKTK are within error of each other in protein stability index: 0.686 ± 0.054 for the first, 0.713 ± 0.01 for the second.

Going from SKLRDFHVLVTH to SLAFGPTAFLPT, the protein stability index rises from 0.611 ± 0.011 to 0.6818 ± 0.0038.

SLAGGSSAPSAS and SLALSAGFSIYL are within error of each other in protein stability index: 0.673 ± 0.013 for the first, 0.6693 ± 0.0062 for the second.

SLASPPPLHCTL and SLAVATAVLLYP are within error of each other in protein stability index: 0.659 ± 0.034 for the first, 0.666 ± 0.035 for the second.

First: SLAYPPPSPPPA
Second: SLCFSVFFPFFF
The protein stability index of the first is higher: 0.68 ± 0.054 for the first, 0.5443 ± 0.0027 for the second.

SLCHLFYGSVEG and SLEYIFSCWSLY are within error of each other in protein stability index: 0.668 ± 0.055 for the first, 0.711 ± 0.1 for the second.

Compared with SLFASTFFVWPS, SLFPAETPPKYR is lower in protein stability index: 0.725 ± 0.014 for the first, 0.656 ± 0.025 for the second.

SLFRYPLALPFP and SLFSLLRSPSPF are within error of each other in protein stability index: 0.711 ± 0.012 for the first, 0.806 ± 0.18 for the second.

First: SLGRVSRLSFQH
Second: SLGSISSATLLA
The protein stability index of the first is higher: 0.784 ± 0.041 for the first, 0.6117 ± 0.0026 for the second.

SLIACQGPIPCG and SLIFVSLLGAYD are within error of each other in protein stability index: 0.648 ± 0.038 for the first, 0.623 ± 0.056 for the second.

SLLAGSSLPFSP and SLLAPPALTAPS are within error of each other in protein stability index: 0.696 ± 0.0074 for the first, 0.674 ± 0.05 for the second.

Going from SLLPPPPPPAPS to SLLSRYFLLPLL, the protein stability index falls from 0.627 ± 0.011 to 0.545 ± 0.061.
